The source of these data is US12258605B2, “Alkane oxidation by modified hydroxylases” (The California Institute of Technology, priority 2005, dated 2025).

Like-named read-outs stand apart in the source and are kept apart here.

The nature of data set [1]: NADPH oxidation/consumption rates and coupling efficiency. The class given is biochemical. The method, then:
NADPH oxidation rates were measured over 20 s at 25° C. using a BioSpec-1601 UV-Vis spectrophotometer (Shimadzu, Columbia, MD) and 1 cm pathlength cuvettes. […] The reaction was initiated by the addition of NADPH and the decrease in absorption at 340 nm was monitored. NADPH consumption rates were also measured without substrate (see Table 2).
The coupling efficiency is estimated from product formation rate/NADPH oxidation rate. In general, NADPH oxidation rates cannot be measured on the same time scale as ethanol formation rates.
For the data shown in Table 6 the initial NADPH consumption rates were measured over 15 seconds at 340 nm as nmol NADPH/min/nmol protein. Octane reactions contained 100 nM P450, 166 uM NADPH, and 4 mM octane in 1% ethanol and potassium phosphate buffer. […] Errors are at most 10%. Initial rates were measured by GC over 1 minute as nmol total products/min/nmol protein. Octane reactions contained 100 nM P450, 500 uM NADPH, and 4 mM octane in 1% ethanol and potassium phosphate buffer. Propane reactions contained 1 uM P450, 500 uM NADPH, and propane-saturated potassium phosphate buffer. Coupling was determined by ratio of product formation rate to NADPH consumption rate. Total turnover numbers were determined as nmol product/nmol enzyme. Octane reactions contained 10-25 nM P450, 500 uM NADPH, and 4 mM octane in 1% ethanol and potassium phosphate buffer. Propane reactions contained 10-25 nM protein, potassium phosphate buffer saturated with propane, and an NADPH regeneration system containing 100 uM NADP+, 2 U/mL isocitrate dehydrogenase, and 10 mM isocitrate.
For Table 13, total turnover numbers were determined as nmol product/nmol protein. […] The rates of product formation were measured by GC over 20 s as nmol total products/min/nmol protein. The reactions contained P450 (200 nM), NADPH (500 μM) and octane (2 mM) in ethanol (2%) and potassium phosphate buffer (0.1 M, pH 8.0). The rates of NADPH oxidation were measured over 20 s at 340 nm as nmol NADPH/min/nmol protein. The reactions contained P450 (200 nM), NADPH (160 μM), and octane (2 mM) in ethanol (2%) and potassium phosphate buffer (0.1 M, pH 8.0). The background NADPH oxidation rate (without substrate) rate was 220/min. The coupling efficiency is the ratio of product formation rate to NADPH oxidation rate.
The activity of BM-3-A328V on CM and other substrates such as HME, DME, and propane was further investigated by measuring product formation rate, cofactor consumption and coupling efficiency (Table 14). This mutant was also found to be capable to hydroxylate ethane to ethanol, although only for a total of about 5-10 turnovers. In Table 14 “consumption” rates are expressed as nmol NADPH/nmol enzyme/min and “product formation” rates are expressed as nmol product/nmol enzyme/min.

Data set [2] can be described thus: T50 determination (heat inactivation of CO-binding). It is filed as physicochemical. Here is the method:
T50 determination. A solution of purified enzyme (1-3 μM) in 100 mM KPi pH 8.0 buffer was transferred on a PCR 96-well plate and incubated for 10 minutes at different temperatures (from 37° C. to 60° C.) in a PCR thermocycler. The plate was then cooled on ice, centrifuged at 1500 g for 10 min. 160 μL of the protein solution was then transferred on a 96-well microtiter plate with 40 μL of sodium hydrosulfite 0.1 M in 1 M KPi pH 8.0. A protein sample incubated at room temperature and one incubated on ice were included in the series. Concentration of folded protein was then determined by measuring CO-binding difference spectra using absorption at 450 and 490 nm and extinction coefficient ε450-490=91,000 M^−1 cm^−1. CO-binding signals were normalized to protein concentration of the sample incubated at 4° C. T50 values were calculated as midpoint inactivation temperatures from nonlinear fitting to the heat-inactivation curves. Experiments were carried out in triplicate.
As a first step, we aimed at increasing the thermostability of 35E11 heme domain in order to obtain a more ‘evolvable’ parent. […] To regain stability and allow further evolution, stabilizing mutations, derived from a thermostable peroxygenase, was tested in single and in combination (Table 16). The effect on enzyme's thermostability of each single mutation or combination thereof on thermostability was evaluated by monitoring temperature-dependent inactivation of the enzyme's CO-binding (FIG. 36C). Among 35E11 derivatives, ETS8 was selected as the best candidate for further evolution experiments, in that its higher thermostability (ΔT50=+5.1° C.) was accompanied by only a 20% decrease in propane activity on propane. […]
T50 values determined from heat-inactivation curves of heme-dependent CO-binding spectral shift show how mutations accumulated during laboratory evolution affected enzyme stability (FIG. 37E) and enable an estimation per-mutation stability penalties for each directed evolution round (FIG. 37F). […]

For data set [3] the following is noted: palmitate; cited from earlier work.
For data set [4] the following is noted: palmitic acid; cited from earlier work.
The conditions of data set [5]: lauric acid; cited from earlier work.

B1: 35-E11: P450 BM-3 variant, SEQ ID NO:7: 53-5H substitutions plus E464G and I710T (protein)
chain: TIKEMPQPKTFGELKNLPLLNTDKPVQALMKIADELGEIFKFEAPGCVTRYLSSQRLIKEACDESRFDKNLSQALKFFRDFSGDGLFTSWTHEINWKKAHNILLPSFSQQAMKGYHAMMVDIAVQLVQKWERLNADEHIEVSEDMTRLTLDTIGLCGFNYRFNSFYRDQPHPFIISMVRALDEVMNKLQRANPDDPAYDENKRQCQEDIKVMNDLVDKIIADRKARGEQSDDLLTQMLNGKDPETGEPLDDGNISYQIITFLIAGHETTSGLLSFALYFLVKNPHVLQKVVEEAARVLVDPVPSYKQVKQLKYVGMVLNEALRLWPTFPAFSLYAKEDTVLGGEYPLEKGDEVMVLIPQLHRDKTIWGDDVEEFRPERFENPSAIPQHAFKPFGNGQRACIGQQFALHEATLVLGMMLKHFDFEDHTNYELDIKETLTLKPEGFVVKAKSKKIPLGGIPSPSTGQSAKKVRKKAENAHNTPLLVLYGSNMGTAEGTARDLADIAMSKGFAPQVATLDSHAGNLPREGAVLIVTASYNGHPPDNAKQFVDWLDQASADEVKGVRYSVFGCGDKNWATTYQKVPAFIDETLAAKGAENIADRGEADASDDFEGTYEEWREHMWSDVAAYFNLDIENSEDNKSTLSLQFVDSAADMPLAKMHGAFSTNVVASKELQQPGSARSTRHLEIELPKEASYQEGDHLGVIPRNYEGTVNRVTARFGLDASQQIRLEAEEEKLAHLPLAKTVSVEELLQYVELQDPVTRTQLRAMAAKTVCPPHKVELEALLEKQAYKEQVLAKRLTMLELLEKYPACEMKFSEFIALLPSIRPRYYSISSSPRVDEKQASITVSVVSGEAWSGYGEYKGIASNYLAELQEGDTITCFISTPQSEFTLPKDPETPLIMVGPGTGVAPFRGFVQARKQLKEQGQSLGEAHLYFGCRSPHEDYLYQEELENAQSEGIITLHTAFSRMPNQPKTYVQHVMEQDGKKLIELLDQGAHFYICGDGSQMAPAVEATLMKSYADVHQVSEADARLWLQQLEEKGRYAKDVWAG
modifications: mutant P450 35-E11 protein sequence
Take B1: the Coupling efficiency is reported as 64% in data set [1] (Octane); 0.08% in data set [1] (ethane, product formation rate/NADPH oxidation rate); 26% in data set [1] (propane). Besides, the NADPH oxidation rate is approximately 520 min⁻¹ in data set [1] (ethane); 390 min⁻¹ in data set [1] (no substrate); 660 min⁻¹ in data set [1] (octane, 1% ethanol); 800 min⁻¹ in data set [1] (propane). Also, in data set [2] (10 minutes incubation, midpoint inactivation temperature of CO-binding), the T50 was 43.4 ± 0.6 °C. Further, the ΔT50 in data set [2] (relative to 35E11) was 0 °C; in data set [2] (stability loss from wild-type to 35E11) it was −11.6 °C.

B2: Wild-type BM-3: wild-type cytochrome P450 BM-3 from Bacillus megaterium, SEQ ID NO:1 (protein, listed as Bacillus megaterium)
chain: TIKEMPQPKTFGELKNLPLLNTDKPVQALMKIADELGEIFKFEAPGRVTRYLSSQRLIKEACDESRFDKNLSQALKFVRDFAGDGLFTSWTHEKNWKKAHNILLPSFSQQAMKGYHAMMVDIAVQLVQKWERLNADEHIEVPEDMTRLTLDTIGLCGFNYRFNSFYRDQPHPFITSMVRALDEAMNKLQRANPDDPAYDENKRQFQEDIKVMNDLVDKIIADRKASGEQSDDLLTHMLNGKDPETGEPLDDENIRYQIITFLIAGHETTSGLLSFALYFLVKNPHVLQKAAEEAARVLVDPVPSYKQVKQLKYVGMVLNEALRLWPTAPAFSLYAKEDTVLGGEYPLEKGDELMVLIPQLHRDKTIWGDDVEEFRPERFENPSAIPQHAFKPFGNGQRACIGQQFALHEATLVLGMMLKHFDFEDHTNYELDIKETLTLKPEGFVVKAKSKKIPLGGIPSPSTEQSAKKVRKKAENAHNTPLLVLYGSNMGTAEGTARDLADIAMSKGFAPQVATLDSHAGNLPREGAVLIVTASYNGHPPDNAKQFVDWLDQASADEVKGVRYSVFGCGDKNWATTYQKVPAFIDETLAAKGAENIADRGEADASDDFEGTYEEWREHMWSDVAAYFNLDIENSEDNKSTLSLQFVDSAADMPLAKMHGAFSTNVVASKELQQPGSARSTRHLEIELPKEASYQEGDHLGVIPRNYEGIVNRVTARFGLDASQQIRLEAEEEKLAHLPLAKTVSVEELLQYVELQDPVTRTQLRAMAAKTVCPPHKVELEALLEKQAYKEQVLAKRLTMLELLEKYPACEMKFSEFIALLPSIRPRYYSISSSPRVDEKQASITVSVVSGEAWSGYGEYKGIASNYLAELQEGDTITCFISTPQSEFTLPKDPETPLIMVGPGTGVAPFRGFVQARKQLKEQGQSLGEAHLYFGCRSPHEDYLYQEELENAQSEGIITLHTAFSRMPNQPKTYVQHVMEQDGKKLIELLDQGAHFYICGDGSQMAPAVEATLMKSYADVHQVSEADARLWLQQLEEKGRYAKDVWAG
B2: in data set [3], the Coupling efficiency is recorded as 93% and the catalytic efficiency is 6e+07 M⁻¹ s⁻¹. The “hydroxylation at the ω-2 position” value in data set [4] is 48%. The “hydroxylation at the ω-1 position” value in data set [5] is on record as 48%.
